Assay results taken from article PMC10045995.

Assays:
[1] = target: epidermal growth factor receptor (EGFR), expressed in sensor cells as fusion protein 1 (mNpu^N-EGFR) and fusion protein 2 (EGFR-Npu^C-rMTS-mCherry) (UniProt P00533)
[2] = target: epidermal growth factor receptor (EGFR), expressed in sensor cells as fusion protein 1 (mNpu^N-EGFR) and fusion protein 2 (EGFR-Npu^C-rMTS-mCherry) (UniProt P00533); remark: listed apart in the source

Substance | co-localisation (Pearson's r) of mCherry with mitochondrial stain in sensor cells treated with EGF 0.001-100 ng/mL for 1 h (untreated control 0.08) [1] [Pearson's r] | limit of detection (LOD) of EGF by the sensor cells (mCherry translocation to mitochondria) [1] [ng/mL] | co-localisation (Pearson's r) of mCherry with mitochondrial stain in EGF-treated sensor cells (agonist/antagonist screen; untreated control 0.1) [2] [Pearson's r] | co-localisation (Pearson's r) of mCherry with mitochondrial stain in sensor cells co-treated with EGF and Cetuximab (400 nM) (EGF alone 0.8) [2] [Pearson's r] | co-localisation (Pearson's r) of mCherry with mitochondrial stain in sensor cells treated with TGF-α (100 ng/mL) (untreated control 0.1) [2] [Pearson's r]
epidermal growth factor (EGF) (from UniProt P01133 971-1023) (ligand) | 0.87 | 0.1 | 0.8 | 0.1 | –
transforming growth factor-α (TGF-α) (from UniProt P01135 40-89) (ligand) | – | – | – | – | 0.8
